According to paper PMC2896673 (Journal of Biomedicine and Biotechnology, 2010):

Target: human procollagen V proα2(V) chain, produced in HEK-293 cells (human, UniProt P05997 27-1499)
Assay: ion-exchange chromatography (DEAE-cellulose) with Western blot of the fractions; supernatant of medium of co-transfected HEK-293 cells (clone C22) after dialysis against 50 mM Tris-HCl pH 8.6; linear 0–0.6 M NaCl gradient; fractions double probed with mAb 18G5 and polyclonal antibodies to collagen V
Conditions: partners not purified

Sequence of human procollagen V proα2(V) chain, produced in HEK-293 cells (P05997 27-1499): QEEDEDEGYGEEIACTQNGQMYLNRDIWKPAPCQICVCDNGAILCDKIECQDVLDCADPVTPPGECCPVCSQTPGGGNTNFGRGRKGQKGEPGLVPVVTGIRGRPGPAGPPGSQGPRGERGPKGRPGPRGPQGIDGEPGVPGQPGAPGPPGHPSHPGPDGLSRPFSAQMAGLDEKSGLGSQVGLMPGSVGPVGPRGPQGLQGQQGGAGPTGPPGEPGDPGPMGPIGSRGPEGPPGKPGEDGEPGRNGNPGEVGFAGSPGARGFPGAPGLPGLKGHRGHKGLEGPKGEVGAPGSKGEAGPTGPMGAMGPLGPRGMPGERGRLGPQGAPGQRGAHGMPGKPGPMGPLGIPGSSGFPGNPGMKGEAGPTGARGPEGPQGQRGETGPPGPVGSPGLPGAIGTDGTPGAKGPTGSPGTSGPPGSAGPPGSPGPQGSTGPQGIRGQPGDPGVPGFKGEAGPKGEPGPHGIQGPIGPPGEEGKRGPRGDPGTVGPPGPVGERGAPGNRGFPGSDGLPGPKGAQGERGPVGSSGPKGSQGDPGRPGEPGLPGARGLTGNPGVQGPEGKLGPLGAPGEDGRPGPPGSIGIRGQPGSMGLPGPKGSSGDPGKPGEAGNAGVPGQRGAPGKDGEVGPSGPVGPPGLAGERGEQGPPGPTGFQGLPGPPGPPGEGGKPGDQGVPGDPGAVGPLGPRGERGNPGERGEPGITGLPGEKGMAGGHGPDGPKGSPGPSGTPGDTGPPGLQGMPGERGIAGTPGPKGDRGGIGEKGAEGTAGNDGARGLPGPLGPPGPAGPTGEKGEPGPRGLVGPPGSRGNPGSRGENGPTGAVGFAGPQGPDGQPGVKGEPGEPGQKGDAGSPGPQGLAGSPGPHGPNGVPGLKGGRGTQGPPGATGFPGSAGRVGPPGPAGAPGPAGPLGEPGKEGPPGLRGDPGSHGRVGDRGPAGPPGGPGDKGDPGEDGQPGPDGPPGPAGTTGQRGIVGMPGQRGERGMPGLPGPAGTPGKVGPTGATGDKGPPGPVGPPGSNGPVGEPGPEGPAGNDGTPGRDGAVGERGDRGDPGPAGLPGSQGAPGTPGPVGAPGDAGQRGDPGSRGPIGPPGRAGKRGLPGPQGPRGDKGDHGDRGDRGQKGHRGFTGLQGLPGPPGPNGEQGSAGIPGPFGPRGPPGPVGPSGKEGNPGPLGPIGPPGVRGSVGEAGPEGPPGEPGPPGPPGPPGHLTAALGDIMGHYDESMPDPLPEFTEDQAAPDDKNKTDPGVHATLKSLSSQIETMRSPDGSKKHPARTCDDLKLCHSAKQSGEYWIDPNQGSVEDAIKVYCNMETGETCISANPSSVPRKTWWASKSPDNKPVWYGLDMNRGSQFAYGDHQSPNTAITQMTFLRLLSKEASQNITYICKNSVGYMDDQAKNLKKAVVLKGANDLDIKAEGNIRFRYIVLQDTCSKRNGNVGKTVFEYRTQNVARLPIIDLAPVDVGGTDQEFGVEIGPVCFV

stoichiometry N: ~2
B1: human procollagen V proα1(V) chain, produced in HEK-293 cells (natural protein, UniProt P20908 38-1838, looked up)
chain: QPADLLKVLDFHNLPDGITKTTGFCATRRSSKGPDVAYRVTKDAQLSAPTKQLYPASAFPEDFSILTTVKAKKGSQAFLVSIYNEQGIQQIGLELGRSPVFLYEDHTGKPGPEDYPLFRGINLSDGKWHRIALSVHKKNVTLILDCKKKTTKFLDRSDHPMIDINGIIVFGTRILDEEVFEGDIQQLLFVSDHRAAYDYCEHYSPDCDTAVPDTPQSQDPNPDEYYTEGDGEGETYYYEYPYYEDPEDLGKEPTPSKKPVEAAKETTEVPEELTPTPTEAAPMPETSEGAGKEEDVGIGDYDYVPSEDYYTPSPYDDLTYGEGEENPDQPTDPGAGAEIPTSTADTSNSSNPAPPPGEGADDLEGEFTEETIRNLDENYYDPYYDPTSSPSEIGPGMPANQDTIYEGIGGPRGEKGQKGEPAIIEPGMLIEGPPGPEGPAGLPGPPGTMGPTGQVGDPGERGPPGRPGLPGADGLPGPPGTMLMLPFRFGGGGDAGSKGPMVSAQESQAQAILQQARLALRGPAGPMGLTGRPGPVGPPGSGGLKGEPGDVGPQGPRGVQGPPGPAGKPGRRGRAGSDGARGMPGQTGPKGDRGFDGLAGLPGEKGHRGDPGPSGPPGPPGDDGERGDDGEVGPRGLPGEPGPRGLLGPKGPPGPPGPPGVTGMDGQPGPKGNVGPQGEPGPPGQQGNPGAQGLPGPQGAIGPPGEKGPLGKPGLPGMPGADGPPGHPGKEGPPGEKGGQGPPGPQGPIGYPGPRGVKGADGIRGLKGTKGEKGEDGFPGFKGDMGIKGDRGEIGPPGPRGEDGPEGPKGRGGPNGDPGPLGPPGEKGKLGVPGLPGYPGRQGPKGSIGFPGFPGANGEKGGRGTPGKPGPRGQRGPTGPRGERGPRGITGKPGPKGNSGGDGPAGPPGERGPNGPQGPTGFPGPKGPPGPPGKDGLPGHPGQRGETGFQGKTGPPGPPGVVGPQGPTGETGPMGERGHPGPPGPPGEQGLPGLAGKEGTKGDPGPAGLPGKDGPPGLRGFPGDRGLPGPVGALGLKGNEGPPGPPGPAGSPGERGPAGAAGPIGIPGRPGPQGPPGPAGEKGAPGEKGPQGPAGRDGLQGPVGLPGPAGPVGPPGEDGDKGEIGEPGQKGSKGDKGEQGPPGPTGPQGPIGQPGPSGADGEPGPRGQQGLFGQKGDEGPRGFPGPPGPVGLQGLPGPPGEKGETGDVGQMGPPGPPGPRGPSGAPGADGPQGPPGGIGNPGAVGEKGEPGEAGEPGLPGEGGPPGPKGERGEKGESGPSGAAGPPGPKGPPGDDGPKGSPGPVGFPGDPGPPGEPGPAGQDGPPGDKGDDGEPGQTGSPGPTGEPGPSGPPGKRGPPGPAGPEGRQGEKGAKGEAGLEGPPGKTGPIGPQGAPGKPGPDGLRGIPGPVGEQGLPGSPGPDGPPGPMGPPGLPGLKGDSGPKGEKGHPGLIGLIGPPGEQGEKGDRGLPGPQGSSGPKGEQGITGPSGPIGPPGPPGLPGPPGPKGAKGSSGPTGPKGEAGHPGPPGPPGPPGEVIQPLPIQASRTRRNIDASQLLDDGNGENYVDYADGMEEIFGSLNSLKLEIEQMKRPLGTQQNPARTCKDLQLCHPDFPDGEYWVDPNQGCSRDSFKVYCNFTAGGSTCVFPDKKSEGARITSWPKENPGSWFSEFKRGKLLSYVDAEGNPVGVVQMTFLRLLSASAHQNVTYHCYQSVAWQDAATGSYDKALRFLGSNDEEMSYDNNPYIRALVDGCATKKGYQKTVLEIDTPKVEQVPIVDIMFNDFGEASQKFGFEVGPACFMG
